Positions count from the first letter of the chain named. Several values for one entry are separate records, joined by “and”; a condition that tells them apart may be missing. Equal entries are not always repeated.
B1: 1X-493L1FR (Fab) (Fab, V domains shown)
VH: QVTLRESGPALVKPTQTLTLTCTFSGFSLSTSGMSVGWIRQPPGKALEWLADIWWDDKKDYNPSLKSRLTISKDTSKNQVVLKVTNMDPADTATYYCARSMITNWYFDVWGAGTTVTVSS
VL: DIQMTQSPSTLSASVGDRVTITCSASSSVGYMHWYQQKPGKAPKLLIYDTSKLASGVPSRFSGSGSGTEFTLTISSLQPDDFATYYCFQGSGYPFTFGGGTKLEIK
B2: A13c4 (Fab) (Fab, V domains shown)
VH: B1 VH with S32A, D57G, D60S, S67D, S100D, T103F, W105F, A112Q
VL: B1 VL with A25L, S28R, S51M, K52Y, L53Q, A54S, L103V
B3: A1e9 (monoclonal antibody) (antibody, V domains shown)
VH: B1 VH with S32A, D57G, D60H, S67D, S100D, T103F, A112Q
VL: B1 VL with A25L, S28R, S51F, A54S, L103V
B4: P12f4 (Fab) (Fab, V domains shown)
VH: B1 VH with S32P, D57G, D60H, S67D, S100D, T103F, W105F, A112Q
VL: B1 VL with A25L, S28R, S51R, K52G, A54P, L103V
B5: P11d4 (Fab) (Fab, V domains shown)
VH: B1 VH with S32P, D57G, D60H, S67D, S100D, T103F, A112Q
VL: B1 VL with A25P, S28R, S51M, K52R, L103V
B6: A12a6 (Fab) (Fab, V domains shown)
VH: B1 VH with S32A, D57G, S67D, S100D, T103F, W105F, A112Q
VL: B1 VL with S28R, S51F, A54S, L103V
B7: P12f2 (Fab) (Fab, V domains shown)
VH: B1 VH with S32P, D60H, S67D, S100D, T103F, W105F
VL: B1 VL with A25L, S28R, S51F, K52Y, A54S, L103V
notes: also called Pf12; P1212
B8: A13a11 (Fab) (Fab, V domains shown)
VH: B1 VH with S32A, D60H, S67D, S100D, T103F
VL: B1 VL with A25P, S28R, S51Y, K52R, L53H, A54S
B9: A8c7 (monoclonal antibody) (antibody, V domains shown)
VH: B1 VH with S32A, D60S, S67D, S100D, T103F, A112Q
VL: B1 VL with A25P, S28R, S51R, K52Y, L53Q, A54S
B10: M3H9 (Fab) (Fab, V domains shown)
VH: B1 VH with S32A, S100D, T103F
VL: B1 VL with S51Y, L53Q, A54T
B11: DG (Fab) (Fab, V domains shown)
VH: B1 VH with S32A, S100D, W105F
VL: B1 VL with S51F
B12: A13c4 (monoclonal antibody) (antibody, V domains shown)
VH: B1 VH with S32A, D57G, D60S, S67D, S100D, T103F, W105F, A112Q
VL: B1 VL with A25L, S28R, S51M, K52Y, L53Q, A54S, L103V
B13: P12f4 (monoclonal antibody) (antibody, V domains shown)
VH: B1 VH with S32P, D57G, D60H, S67D, S100D, T103F, W105F, A112Q
VL: B1 VL with A25L, S28R, S51R, K52G, A54P, L103V
B14: P12f2 (monoclonal antibody) (antibody, V domains shown)
VH: B1 VH with S32P, D60H, S67D, S100D, T103F, W105F
VL: B1 VL with A25L, S28R, S51F, K52Y, A54S, L103V
notes: also called Pf12; P1212
B15: 6H8 (Fab) (Fab, V domains shown)
VH: B1 VH with S32A, S100D, W105F
VL: B1 VL with S51F, A54T
B16: AFFF (monoclonal antibody) (antibody, V domains shown)
VH: B1 VH with S32A, W105F
VL: B1 VL with S51F, G90F
B17: A12a6 (monoclonal antibody) (antibody, V domains shown)
VH: B1 VH with S32A, D57G, S67D, S100D, T103F, W105F, A112Q
VL: B1 VL with S28R, S51F, A54S, L103V
B18: P11d4 (monoclonal antibody) (antibody, V domains shown)
VH: B1 VH with S32P, D57G, D60H, S67D, S100D, T103F, A112Q
VL: B1 VL with A25P, S28R, S51M, K52R, L103V
B19: A4B4 (monoclonal antibody) (antibody, V domains shown)
VH: B1 VH with S32A, D60H, S67D, S100D, T103F, W105F, A112Q
VL: B1 VL with S28R, S51F, K52F, A54D
notes: also called A4B4/A4B4 (HC/LC)
B20: Y10H6 (Fab) (Fab, V domains shown)
VH: B1 VH with S32A, S100D, T103F
VL: B1 VL with S51R, K52Y, A54S
B21: H3-3F4 (Fab) (Fab, V domains shown)
VH: B1 VH with S32A, S100D, T103F
VL: B1 VL with S51F
notes: also called 113-3F4
B22: L1-7E5 (Fab) (Fab, V domains shown)
VH: B1 VH with S32A, S100D, W105F
VL: B1 VL with S28R, S51F

How the values were obtained:
[1] = target: F protein (RSV F glycoprotein immobilised on the BIAcore sensor chip) (respiratory syncytial virus (RSV), UniProt P03420 26-524); assay: BIAcore, immobilised F protein
[2] = target: T1, F protein of wild type RSV A/Long (respiratory syncytial virus, strain …, UniProt P12568 26-574); assay: cell-based or functional assay
[3] = target: T1, F protein of wild type RSV A/Long; assay: cell-based or functional assay; remark: listed apart in the source
Bac-F = Bac-F (UniProt P03420 26-524); assay: BIAcore, Mab vs Bac-F, 1:1
[4] = target: T2, F protein of MARM #13 (selected with A4B4 from MARM B9) (respiratory syncytial virus, strain …, UniProt P12568 26-574); assay: IFA on MARM-infected HEp-2 cells
T2 construct: whole, on cells

[5] = target: T3, F protein of RSV A/Long MARM #10 (selected with A4B4) (respiratory syncytial virus, strain …, UniProt P12568 26-574); assay: IFA on MARM-infected HEp-2 cells
T3 construct: whole, on cells

[6] = target: T4, F protein of RSV A/Long MARM #11 (selected with A4B4) (respiratory syncytial virus, strain …, UniProt P12568 26-574); assay: IFA on MARM-infected HEp-2 cells
T4 construct: whole, on cells

[7] = target: T5, F protein of RSV A/Long MARM #6 (selected with A4B4) (respiratory syncytial virus, strain …, UniProt P12568 26-574); assay: IFA on MARM-infected HEp-2 cells
T5 construct: whole, on cells

[8] = target: T6, F protein of RSV A/Long MARM #9 (selected with A4B4) (respiratory syncytial virus, strain …, UniProt P12568 26-574); assay: IFA on MARM-infected HEp-2 cells
T6 construct: whole, on cells

Binder	koff [1]	kon [1]	Fold Difference (Control IC50) [2] [fold]	Fold Difference (Curve IC50) [2] [fold]	Mean IC50 (Control), RSV microneutralization [2] [µg/mL]	Mean IC50 (Curve), RSV microneutralization [2] [µg/mL]	Kd (Bac-F) [pM]	koff (Bac-F) [s⁻¹]	kon (Bac-F) [M⁻¹ s⁻¹]	number in parentheses after KD (fold vs SYNAGIS) (Bac-F) [fold]	also measured
B1	0.00065 s⁻¹	185000 M⁻¹ s⁻¹									
B2	0.00028 s⁻¹	781000 M⁻¹ s⁻¹ and 735000 M⁻¹ s⁻¹	21	17	0.0258	0.0264					EC50, RSV (Long) microneutralization [3]: 520 pM
B3							330	0.000143	433000	12	
B4	0.000299 s⁻¹	527000 M⁻¹ s⁻¹	15	10	0.0351	0.0464					EC50, RSV (Long) microneutralization [3]: 700 pM
B5	0.000717 s⁻¹	570000 M⁻¹ s⁻¹ and 572000 M⁻¹ s⁻¹			> 1	> 1					EC50, RSV (Long) microneutralization [3]: > 20000 pM
B6	0.00023 s⁻¹	743000 M⁻¹ s⁻¹	17	16	0.031	0.0287					EC50, RSV (Long) microneutralization [3]: 620 pM
B7	0.000282 s⁻¹	663000 M⁻¹ s⁻¹	16	11	0.0326	0.0407					EC50, RSV (Long) microneutralization [3]: 650 pM
B8	0.00025 s⁻¹	735000 M⁻¹ s⁻¹									
B9							210	8.75e-05	417000	19	
B10	0.000338 s⁻¹	605000 M⁻¹ s⁻¹									
B11	0.000167 s⁻¹ and 0.000444 s⁻¹										
B12			14	12	0.0375	0.0376	130	3.96e-05	300000	30	
B13			23	19	0.0235	0.0242	110	5.55e-05	495000	35	
B14			24	20	0.0223	0.0231	310	0.000128	407000	13	
B15	0.000178 s⁻¹ and 0.000473 s⁻¹	314000 M⁻¹ s⁻¹ and 444000 M⁻¹ s⁻¹									
B16	0.000274 s⁻¹ and 0.000266 s⁻¹ and 0.000206 s⁻¹	108000 M⁻¹ s⁻¹ and 96000 M⁻¹ s⁻¹ and 124000 M⁻¹ s⁻¹									
B17			15	13	0.0354	0.0357	40	1.65e-05	460000	98	
B18			19	21	0.0289	0.0217	620	0.000289	466000	6	
B19			35	27	0.0154	0.0171	20	1.06e-05	434000	195	binding result [4]: no binding (tested: 250 ng/ml); binding result [5]: no binding (tested: 250 ng/ml); binding result [6]: no binding (tested: 250 ng/ml); binding result [7]: no binding (tested: 250 ng/ml); binding result [8]: no binding (tested: 250 ng/ml)
B20	0.000462 s⁻¹	757000 M⁻¹ s⁻¹									
B21	0.000445 s⁻¹ and 0.000402 s⁻¹										
B22	0.000192 s⁻¹ and 0.000331 s⁻¹ and 0.000229 s⁻¹										

Source: patent US20020177126A1 (published 2002)
